Results published in paper doi:10.1101/306175.

Experiments:
[1] = target: Pol β "wild-type" (unlabelled) (UniProt P06746 1-335, C239S;C267S;V303C); assay: single-molecule FRET titration
[2] = target: DNA polymerase I Klenow Fragment (KF) (E. coli, UniProt P00582 324-928, D424A); assay: single-molecule FRET

B1: 1-nt gapped DNA bending sensor (Cy3B/Cy5) (dsDNA)
DNA 1: CCTCATTCTTCGTCCCATTACCATACATCC
DNA 2: CCACGAAGCAGGCTCTACTCTCTAAGGATGTATGGTAATGGGACGAAGAATGAGG
DNA 3: TAGAGAGTAGAGCCTGCTTCGTGG
modifications: primer 3' dideoxy-terminated (printed TCCH); 5'-phosphate on downstream strand
B1 was tested, and the Kd [1] was 19 ± 2 nM and the binding result [2] was “binds”.
